From the supplement of paper PMC9170038

System: K4 kissing-loop RNA reporter
Test: apparent KD of K4 kissing-loop reporter; higher = weaker reporter binding
Settings: Eterna round: R107
Procedure: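 RNA-MaP round R107: designed RNA switches with theophylline, tryptophan, arginine or FMN aptamers are transcribed on-chip within common flanks. They are titrated with a labelled K4 kissing-loop RNA reporter in RNA-MaP buffer (100 mM Tris pH 7.5, 80 mM KCl, 4 mM MgCl2), without ligand or with the indicated ligand. Median apparent KD per design.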

[1] = input ligand: theophylline 20 uM
[2] = input ligand: tryptophan 2.4 mM
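Also: bound reporter read as fluorescence of individual clusters on recovered sequencing chips by microscopy, with normalized cluster intensities fitted with a binding model.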

Sequence | apparent KD of K4 kissing-loop reporter (input ligand: FMN 200 uM) | apparent KD of K4 kissing-loop reporter (input ligand: arginine 13.2 mM) | apparent KD of K4 kissing-loop reporter (input ligand: none) | apparent KD of K4 kissing-loop reporter [1] | apparent KD of K4 kissing-loop reporter [2]
AUGUUGAGCGGAAGGAGCGGCUGAGCCAGUGAUGUUGGUUAAUCCAAGUGAUGUUGGAAAAGCCAGGUAGGUCGCCGCUUUACGU [whbob_SS_Arginine_B_2t144] | 1010 nM | 741 nM | 1040 nM | 926 nM | 832 nM
GCGCGGGAGUGAUGUUCCAAGUGGUGUUAACGAGGACCGGUACGGCCGCCACUCGUUACGGCCGGGCCGUAGGAUACACUGGCGC [Same State - Tryptophan A (Freestyle 16)] | 168 nM | 242 nM | 274 nM | 471 nM | 415 nM
AAGUGAUGUUGUAGUGAUGUUGUGAUGUUGCAGGAUAUAUAGUGAUGUAGAAGGGUAUGUACAGAUUUUUUUUUUGAGUGAUGAU [ffdcmullin] | 83.4 nM | 37.1 nM | 64.9 nM | 48.1 nM | 66.1 nM
AGUGAUGUUGUGUUGUGUUAGGGAAGUGAUCGAGGACCGGUACGGCCGCCACUCGAGUGAUGAGUGAGUGAUGUUUGUUUAGGGA [whbob_SS_Tryp_A_m8] | 926 nM | 1290 nM | 395 nM | 3230 nM | 375 nM
GGUAGCAUGGCGGCCGCCACUCUUCAUUAGUGAUGUUAAUGCCGAGUGCGCUAACUCCAACAGGAGAGGACCGGGCCAUGCUACC | 532 nM | 445 nM | 501 nM | 760 nM | 98.8 nM
CCGCCAUCGUCAGAUACCAGGCUGAUGGCGGUAACCGCCAAGCGAGUGAUGUUCGCAUCAGUCCCUUGGCAGCUGACGAAGACUG [#16 K4 Theophylline B Same State] | 176 nM | 86.9 nM | 190 nM | 283 nM | 133 nM
CGACACUCAGCGGCCGCCACUGAGCUAUAUUUUGCAGGUGCCCGAGUAAGUGAUGUUUACUUCGUCAGGACCGGGCUGGUUUCAA [theeternabot_sameState_KL_Trp_B_20] | 514 nM | 298 nM | 609 nM | 294 nM | 351 nM
AUACGUUUAAGUGAUACCAGACAUGUGAGUGAUGUUUACAAAUAAAUUAAAUUUUUAGCUGUCCCUUGGCAGCACAGUUUAUUUA [JR_ExcTheophyB_Sub002] | 516 nM | 517 nM | 594 nM | 610 nM | 430 nM
GCCUACGAUGCAGGAUAUAGCUCGCGAGUGAUGUUCGCAGCUGUAUGGUAGUAAACUUCCACGUGUCUAGAAGGGCAUCGUAGGC | 111 nM | 79.7 nM | 91.6 nM | 80 nM | 90.7 nM
UGACUGGACUGAAGGAGCGCUUAACUCCUAGUGAUGUUAGGACAACGAGACAAAGUCUCGAAGCAGGUAGGUCGCAGUCUAGUCU | 217 nM | 155 nM | 204 nM | 198 nM | 199 nM
CGAGUGAUGUUCGUUCGUUUAUUUCUUUGACAGGAUAUGCGGAAACGCAGAAGGGUCACCUUUGAGUUAAAGGAAUUUACGUUAU [Ex FMN A 26] | 572 nM | 509 nM | 599 nM | 539 nM | 483 nM
AACAUUUUCAGAAGGAGCGUGAAUUAUUCAUAAUUAUAUUAUACGAGUGAUGUUCGUAUUUCACAGGUAGGUCGCUGAUAUAUUA [JR_SSArginiB_Sub001] | 113 nM | 133 nM | 114 nM | 133 nM | 107 nM
CCAGUGAUAAACGAUACCAGAAAUACCUUAUUUGGCCGGCGGAGUGAUGUUCCUAAUACUUUCCCUUGGCAGCGUCGAAUGCUAG [theeternabot_sameState_KL_Theo_B_16] | 43.8 nM | 61.1 nM | 46 nM | 99 nM | 42.3 nM
UAGGAGUGAUGUUCCAUAUCUUGAGCCGAAGGAGCGGCAUUAUAGCCAGGUAGGUCGCGGCAGAAGGUACCAGUGAUGUUGGAAA [Same State Arginine A GF5] | 182 nM | 160 nM | 206 nM | 202 nM | 173 nM
GGAUAGGAUAGAGGAUAUGGUUUAUGCAGGAAUAACUUAUUGUGUAAAUCCAUAGGGAGUGAUGUUCCAGAAGGCUGUCCUAUCG [MatMod 14 - Jieux - Exclusion - FMN B] | 379 nM | 218 nM | 230 nM | 249 nM | 183 nM
GUUGAUCAUGGAAGGAGCGCCCAUUGUCGACACGAGUGAUGUUCGUGUCGUUGAUUACGAGGGCAGGUAGGUCGCCGUGUGCUUU [Rabele] | 149 nM | 109 nM | 124 nM | 116 nM | 119 nM
GUACGCUUCCGAGUGAUGUUCGGAAAUCGCUAGGAUAUCGCUUUUGCGAGAAGGAGCGCAAUGAGGAAACUCGUUGUUAGUGUAC [FMN A 27] | 164 nM | 146 nM | 177 nM | 171 nM | 163 nM
UGAUAGCCAGUGAUGUUGGCAUAUACUGAAGGAGCGCGUGAAAACGCAGGUAGGUCGCAGUUCCUUGCCAAUUGAUCGAAAGAUC [#08 K4 Arginine A Exclusion] | 162 nM | 200 nM | 183 nM | 207 nM | 162 nM
